Results published in PMC11910620 (Nature Communications, 2025).

How the values were obtained:
[1] = biological target: Msn5 (Kap142) (UniProt P52918); experiment: fluorescence polarization titration, mNeonG-pPho4; conditions: reference: wild-type pPho4; sites S114
[2] = biological target: T1, Msn5 (S. cerevisiae exportin), wild type (S. cerevisiae, UniProt P52918 1-1224); experiment: fluorescence polarisation
T1 sequence: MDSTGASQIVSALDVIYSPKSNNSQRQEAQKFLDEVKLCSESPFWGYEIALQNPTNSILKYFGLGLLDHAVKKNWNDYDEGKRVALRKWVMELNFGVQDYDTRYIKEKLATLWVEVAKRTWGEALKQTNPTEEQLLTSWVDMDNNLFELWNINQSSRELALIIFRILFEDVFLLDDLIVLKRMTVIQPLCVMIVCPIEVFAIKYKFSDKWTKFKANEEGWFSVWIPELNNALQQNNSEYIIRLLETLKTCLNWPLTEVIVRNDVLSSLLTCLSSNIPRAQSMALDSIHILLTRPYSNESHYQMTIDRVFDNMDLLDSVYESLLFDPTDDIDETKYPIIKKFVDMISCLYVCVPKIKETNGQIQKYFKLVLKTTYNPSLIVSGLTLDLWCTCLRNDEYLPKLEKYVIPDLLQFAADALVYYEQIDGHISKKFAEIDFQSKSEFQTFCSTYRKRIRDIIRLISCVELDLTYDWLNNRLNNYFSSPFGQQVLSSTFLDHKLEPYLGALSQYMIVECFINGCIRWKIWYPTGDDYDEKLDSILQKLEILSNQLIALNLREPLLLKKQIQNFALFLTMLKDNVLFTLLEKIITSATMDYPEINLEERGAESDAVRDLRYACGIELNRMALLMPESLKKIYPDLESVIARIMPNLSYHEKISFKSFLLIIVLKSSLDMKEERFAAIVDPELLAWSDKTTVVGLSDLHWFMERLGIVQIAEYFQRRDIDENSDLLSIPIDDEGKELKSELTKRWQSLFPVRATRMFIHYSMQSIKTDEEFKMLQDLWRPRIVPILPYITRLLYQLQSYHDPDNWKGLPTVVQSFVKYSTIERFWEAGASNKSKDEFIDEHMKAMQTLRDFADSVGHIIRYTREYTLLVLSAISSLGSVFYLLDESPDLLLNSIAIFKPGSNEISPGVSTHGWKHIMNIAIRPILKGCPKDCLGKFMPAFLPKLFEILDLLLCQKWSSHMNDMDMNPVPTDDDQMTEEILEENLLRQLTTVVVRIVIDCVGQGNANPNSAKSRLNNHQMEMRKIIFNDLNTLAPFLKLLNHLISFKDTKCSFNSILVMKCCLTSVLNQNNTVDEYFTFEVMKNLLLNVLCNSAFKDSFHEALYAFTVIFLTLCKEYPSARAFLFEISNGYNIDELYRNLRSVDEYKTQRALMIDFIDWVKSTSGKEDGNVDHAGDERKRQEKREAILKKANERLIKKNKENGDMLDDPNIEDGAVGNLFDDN

[3] = biological target: Pho4_(1-200) S114/128DD and Pho4_(1-200) S114/128EE; experiment: fluorescence polarisation

Pho4 3-200 (from UniProt P07270) pPho4 S114A
KD [1]: weaker; reference 44[26,71]

B1: mNeonGreen-Pho4_(3-200), unphosphorylated (domain or fragment)
chain: RTTSEGIHGFVDDLEPKSSILDKVGDFITVNTKRHDGREDFNEQNDELNSQENHNSSENGNENENEQDSLALDDLDRAFELVEGMDMDWMMPSHAHHSPATTATIKPRLLYSPLIHTQSAVPVTISPNLVATATSTTSANKVTKNKSNSSPYLNKRRGKPGPDSATSLFELPDSVIPTPKPKPKPKQYPKVILPSNST
Kd [2]: 2400 nM

B2: mNeonGreen-pPho4_(3-200) 102–107GKK (domain or fragment)
chain: RTTSEGIHGFVDDLEPKSSILDKVGDFITVNTKRHDGREDFNEQNDELNSQENHNSSENGNENENEQDSLALDDLDRAFELVEGMDMDWMMPSHAHHSPGKKGKKKPRLLYSPLIHTQSAVPVTISPNLVATATSTTSANKVTKNKSNSSPYLNKRRGKPGPDSATSLFELPDSVIPTPKPKPKPKQYPKVILPSNST
modifications: phosphorylated in vitro by Pho80-Pho85: pS100, pS114, pS128, pS152
Kd [2]: 110 nM

B3: mNeonGreen-pPho4_(3-200) S114/128AA (domain or fragment)
chain: RTTSEGIHGFVDDLEPKSSILDKVGDFITVNTKRHDGREDFNEQNDELNSQENHNSSENGNENENEQDSLALDDLDRAFELVEGMDMDWMMPSHAHHSPATTATIKPRLLYAPLIHTQSAVPVTIAPNLVATATSTTSANKVTKNKSNSSPYLNKRRGKPGPDSATSLFELPDSVIPTPKPKPKPKQYPKVILPSNST
modifications: phosphorylated in vitro by Pho80-Pho85: pS100, pS152
Kd [2]: 1000 nM

B4: mNeonGreen-pPho4_(3-200) S128A (domain or fragment)
chain: RTTSEGIHGFVDDLEPKSSILDKVGDFITVNTKRHDGREDFNEQNDELNSQENHNSSENGNENENEQDSLALDDLDRAFELVEGMDMDWMMPSHAHHSPATTATIKPRLLYSPLIHTQSAVPVTIAPNLVATATSTTSANKVTKNKSNSSPYLNKRRGKPGPDSATSLFELPDSVIPTPKPKPKPKQYPKVILPSNST
modifications: phosphorylated in vitro by Pho80-Pho85: pS100, pS114, pS152
Kd [2]: 120 nM

B5: mNeonGreen-pPho4_(3-200) R4mut (L131A/T134A) (domain or fragment)
chain: RTTSEGIHGFVDDLEPKSSILDKVGDFITVNTKRHDGREDFNEQNDELNSQENHNSSENGNENENEQDSLALDDLDRAFELVEGMDMDWMMPSHAHHSPATTATIKPRLLYSPLIHTQSAVPVTISPNAVAAATSTTSANKVTKNKSNSSPYLNKRRGKPGPDSATSLFELPDSVIPTPKPKPKPKQYPKVILPSNST
modifications: phosphorylated in vitro by Pho80-Pho85: pS100, pS114, pS128, pS152
Kd [2]: 150 nM

B6: mNeonGreen-pPho4_(3-200) R3mut (domain or fragment)
chain: RTTSEGIHGFVDDLEPKSSILDKVGDFITVNTKRHDGREDFNEQNDELNSQENHNSSENGNENENEQDSLALDDLDRAFELVEGMDMDWMMPSHAHHSPATTATIKPRLLYSPLIHTQSGGSGGSSPNLVATATSTTSANKVTKNKSNSSPYLNKRRGKPGPDSATSLFELPDSVIPTPKPKPKPKQYPKVILPSNST
modifications: phosphorylated in vitro by Pho80-Pho85: pS100, pS114, pS128, pS152
Kd [2]: 280 nM

B7: mNeonGreen-pPho4_(3-200) S100/152AA (domain or fragment)
chain: RTTSEGIHGFVDDLEPKSSILDKVGDFITVNTKRHDGREDFNEQNDELNSQENHNSSENGNENENEQDSLALDDLDRAFELVEGMDMDWMMPSHAHHAPATTATIKPRLLYSPLIHTQSAVPVTISPNLVATATSTTSANKVTKNKSNSAPYLNKRRGKPGPDSATSLFELPDSVIPTPKPKPKPKQYPKVILPSNST
modifications: phosphorylated in vitro by Pho80-Pho85: pS114, pS128
Kd [2]: 46 nM

B8: mNeonGreen-pPho4_(3-200) R2mut (domain or fragment)
chain: RTTSEGIHGFVDDLEPKSSILDKVGDFITVNTKRHDGREDFNEQNDELNSQENHNSSENGNENENEQDSLALDDLDRAFELVEGMDMDWMMPSHAHHSPATTATIKPRLLGSPGGSGQSAVPVTISPNLVATATSTTSANKVTKNKSNSSPYLNKRRGKPGPDSATSLFELPDSVIPTPKPKPKPKQYPKVILPSNST
modifications: phosphorylated in vitro by Pho80-Pho85: pS100, pS114, pS128, pS152
Kd [2]: 800 nM

B9: mNeonGreen-pPho4_(3-200) S114A (domain or fragment)
chain: RTTSEGIHGFVDDLEPKSSILDKVGDFITVNTKRHDGREDFNEQNDELNSQENHNSSENGNENENEQDSLALDDLDRAFELVEGMDMDWMMPSHAHHSPATTATIKPRLLYAPLIHTQSAVPVTISPNLVATATSTTSANKVTKNKSNSSPYLNKRRGKPGPDSATSLFELPDSVIPTPKPKPKPKQYPKVILPSNST
modifications: phosphorylated in vitro by Pho80-Pho85: pS100, pS128, pS152
Kd [2]: 250 nM

B10: Msn5 (S. cerevisiae exportin), wild type (natural protein)
chain: MDSTGASQIVSALDVIYSPKSNNSQRQEAQKFLDEVKLCSESPFWGYEIALQNPTNSILKYFGLGLLDHAVKKNWNDYDEGKRVALRKWVMELNFGVQDYDTRYIKEKLATLWVEVAKRTWGEALKQTNPTEEQLLTSWVDMDNNLFELWNINQSSRELALIIFRILFEDVFLLDDLIVLKRMTVIQPLCVMIVCPIEVFAIKYKFSDKWTKFKANEEGWFSVWIPELNNALQQNNSEYIIRLLETLKTCLNWPLTEVIVRNDVLSSLLTCLSSNIPRAQSMALDSIHILLTRPYSNESHYQMTIDRVFDNMDLLDSVYESLLFDPTDDIDETKYPIIKKFVDMISCLYVCVPKIKETNGQIQKYFKLVLKTTYNPSLIVSGLTLDLWCTCLRNDEYLPKLEKYVIPDLLQFAADALVYYEQIDGHISKKFAEIDFQSKSEFQTFCSTYRKRIRDIIRLISCVELDLTYDWLNNRLNNYFSSPFGQQVLSSTFLDHKLEPYLGALSQYMIVECFINGCIRWKIWYPTGDDYDEKLDSILQKLEILSNQLIALNLREPLLLKKQIQNFALFLTMLKDNVLFTLLEKIITSATMDYPEINLEERGAESDAVRDLRYACGIELNRMALLMPESLKKIYPDLESVIARIMPNLSYHEKISFKSFLLIIVLKSSLDMKEERFAAIVDPELLAWSDKTTVVGLSDLHWFMERLGIVQIAEYFQRRDIDENSDLLSIPIDDEGKELKSELTKRWQSLFPVRATRMFIHYSMQSIKTDEEFKMLQDLWRPRIVPILPYITRLLYQLQSYHDPDNWKGLPTVVQSFVKYSTIERFWEAGASNKSKDEFIDEHMKAMQTLRDFADSVGHIIRYTREYTLLVLSAISSLGSVFYLLDESPDLLLNSIAIFKPGSNEISPGVSTHGWKHIMNIAIRPILKGCPKDCLGKFMPAFLPKLFEILDLLLCQKWSSHMNDMDMNPVPTDDDQMTEEILEENLLRQLTTVVVRIVIDCVGQGNANPNSAKSRLNNHQMEMRKIIFNDLNTLAPFLKLLNHLISFKDTKCSFNSILVMKCCLTSVLNQNNTVDEYFTFEVMKNLLLNVLCNSAFKDSFHEALYAFTVIFLTLCKEYPSARAFLFEISNGYNIDELYRNLRSVDEYKTQRALMIDFIDWVKSTSGKEDGNVDHAGDERKRQEKREAILKKANERLIKKNKENGDMLDDPNIEDGAVGNLFDDN
Kd [3]: 2000 to 3000 nM
